Experimental data: paper PMC3675161 (Biochemistry, 2013)

Target: the molecule itself
Assay: SEC

B1: cytoplasmic portion of selenoprotein S with its native selenocysteine (cSelS) (domain or fragment, human, UniProt Q9BQE4 52-189, looked up)
chain: SARLRALRQRQLDRAAAAVEPDVVVKRQEALAAARLKMQEELNAQVEKHKEKLKQLEEEKRRQKIEMWDSMQEGKSYKGNAKKPQEEDSPGPSTSSVLKRKSDRKPLRGGGYNPLSGEGGGACSWRPGRRGPSSGGUG
modifications: selenocysteine at position 188
stoichiometry N: 2
